According to PMC2572860:

Molecular target: apoMb samples (RNCs bearing apoMb nascent polypeptides of increasing length)
Assay: co-sedimentation

Chain of DnaK (P0A6Y8 whole entry): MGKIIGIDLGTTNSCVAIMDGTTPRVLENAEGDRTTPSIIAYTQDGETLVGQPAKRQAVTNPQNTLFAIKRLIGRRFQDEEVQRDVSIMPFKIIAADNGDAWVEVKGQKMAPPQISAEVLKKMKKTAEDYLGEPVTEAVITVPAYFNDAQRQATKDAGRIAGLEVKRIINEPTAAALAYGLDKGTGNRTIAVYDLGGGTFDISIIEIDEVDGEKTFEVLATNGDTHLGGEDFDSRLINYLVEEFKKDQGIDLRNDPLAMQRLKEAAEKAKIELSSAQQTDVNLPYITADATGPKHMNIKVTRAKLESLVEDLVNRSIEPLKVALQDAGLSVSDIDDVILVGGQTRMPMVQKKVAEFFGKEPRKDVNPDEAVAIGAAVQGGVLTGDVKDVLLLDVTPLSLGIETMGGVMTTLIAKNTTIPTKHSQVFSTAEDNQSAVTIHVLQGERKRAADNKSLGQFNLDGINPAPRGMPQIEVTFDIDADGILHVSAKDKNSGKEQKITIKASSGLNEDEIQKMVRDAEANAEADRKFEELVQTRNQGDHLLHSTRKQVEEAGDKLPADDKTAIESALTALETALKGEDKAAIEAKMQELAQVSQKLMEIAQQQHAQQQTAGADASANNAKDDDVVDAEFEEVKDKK

Which DnaK concentration in the resuspended RNC pellet does the source give for “DnaK (from UniProt P0A6Y8 1-638) (natural protein)” here?
Its DnaK concentration in the resuspended RNC pellet is 20 to 65 nM.
